From patent publication US20200182883A1

Target: HIV-1 IIIB p24 recombinant protein (HIV-1 IIIB)
Experiment: SPR, mAb immobilized on a Protein A chip, 0-200 nM p24, room temperature

B1: N60P55 (antibody, V domains shown)
VH: QVQLRESGPGLVKPSATLSLTCIVSGGSMSGYYWSWIRQPPGKGLEWIGHIDNNERTISSPSLNSRVTVSPDTSRNRFTLTLSSVTAADTATYYCARHVVYGGLDIWGQGTLVTVSS
VL: EIVLTQSPGTLSLSPGERASLSCRASDIVSINYFAWYQQKPGQAPRLLISGASVRATGIPDRFSGSGSGTDFTLTINRLEPEDVAVYYCQQHGSSPTFGQGTKVEIK
Question: With B1 as the binder, how does the Kd read?
Answer: The Kd was 0.0917 nM.

Question: What about the koff of the same binder?
Answer: The koff was 6.55e-05 s⁻¹.

Question: What about the kon of the same binder?
Answer: The kon was 715000 M⁻¹ s⁻¹.
